Conditions: Hirudo medicinalis, Thermal, DSC, reversible: yes, whole UniProt chain shown

B1: Eglin C wild type, P01051 (protein)
chain: TEFGSELKSFPEVVGKTVDQAREYFTLHYPQYDVYFLPEGSPVTLDLRYNRVRVFYNPGTNVVNHVPHVG
In the case of B1, the Tm (pH 1.1, glycine-HCl 50mM) is reported as 41.1 °C, the “heat capacity change of unfolding” value (pH 1.1, glycine-HCl 50mM) is reported as 0.86 kcal/mol/K and the “unfolding enthalpy (calorimetric)” value (pH 1.1, glycine-HCl 50mM) is reported as 39 kcal/mol. For the same protein, the Tm (pH 1.3, glycine-HCl 50mM) was 41.3 °C, the “heat capacity change of unfolding” value (pH 1.3, glycine-HCl 50mM) was 0.97 kcal/mol/K and the “unfolding enthalpy (calorimetric)” value (pH 1.3, glycine-HCl 50mM) was 36.7 kcal/mol. For the same protein, the Tm (pH 1.65, glycine-HCl 50mM) was 46.1 °C, the “heat capacity change of unfolding” value (pH 1.65, glycine-HCl 50mM) was 0.21 kcal/mol/K and the “unfolding enthalpy (calorimetric)” value (pH 1.65, glycine-HCl 50mM) was 39.3 kcal/mol. For the same protein, the Tm (pH 1.8, glycine-HCl 50mM) was 47.3 °C, the “heat capacity change of unfolding” value (pH 1.8, glycine-HCl 50mM) was 0.11 kcal/mol/K and the “unfolding enthalpy (calorimetric)” value (pH 1.8, glycine-HCl 50mM) was 41.9 kcal/mol. The Tm (pH 2, glycine 50mM) was 46.9 °C, the “heat capacity change of unfolding” value (pH 2, glycine 50mM) was 0.58 kcal/mol/K and the “unfolding enthalpy (calorimetric)” value (pH 2, glycine 50mM) was 41.3 kcal/mol. The Tm (pH 2.15, glycine 50mM) was 51.1 °C, the “heat capacity change of unfolding” value (pH 2.15, glycine 50mM) was 0.51 kcal/mol/K and the “unfolding enthalpy (calorimetric)” value (pH 2.15, glycine 50mM) was 46.9 kcal/mol. The Tm (pH 2.25, glycine 50mM) was 51.1 °C, the “heat capacity change of unfolding” value (pH 2.25, glycine 50mM) was 0.51 kcal/mol/K and the “unfolding enthalpy (calorimetric)” value (pH 2.25, glycine 50mM) was 46.7 kcal/mol. The Tm (pH 2.75, glycine 50mM) was 57.6 °C, the “heat capacity change of unfolding” value (pH 2.75, glycine 50mM) was 0.35 kcal/mol/K and the “unfolding enthalpy (calorimetric)” value (pH 2.75, glycine 50mM) was 51 kcal/mol. For the same protein, the Tm (pH 2.85, glycine 50mM) was 59.5 °C, the “heat capacity change of unfolding” value (pH 2.85, glycine 50mM) was 1.02 kcal/mol/K and the “unfolding enthalpy (calorimetric)” value (pH 2.85, glycine 50mM) was 52.3 kcal/mol. The Tm (pH 2.93, glycine 50mM) was 63.9 °C, the “heat capacity change of unfolding” value (pH 2.93, glycine 50mM) was 0.44 kcal/mol/K and the “unfolding enthalpy (calorimetric)” value (pH 2.93, glycine 50mM) was 60.1 kcal/mol. The Tm (pH 3, glycine 50mM) was 63.3 °C, the “heat capacity change of unfolding” value (pH 3, glycine 50mM) was 0.84 kcal/mol/K and the “unfolding enthalpy (calorimetric)” value (pH 3, glycine 50mM) was 57.4 kcal/mol. For the same protein, the Tm (pH 3.25, glycine 50mM) was 69 °C, the “heat capacity change of unfolding” value (pH 3.25, glycine 50mM) was 0.22 kcal/mol/K and the “unfolding enthalpy (calorimetric)” value (pH 3.25, glycine 50mM) was 56.1 kcal/mol. The Tm (pH 7, Sodium phosphate 50mM) was 85.8 °C, the “heat capacity change of unfolding” value (pH 7, Sodium phosphate 50mM) was 0.18 kcal/mol/K and the “unfolding enthalpy (calorimetric)” value (pH 7, Sodium phosphate 50mM) was 74.8 kcal/mol. For the same protein, the Tm (pH 7.01, Sodium phosphate 50mM) was 85.3 °C, the “heat capacity change of unfolding” value (pH 7.01, Sodium phosphate 50mM) was 0.17 kcal/mol/K and the “unfolding enthalpy (calorimetric)” value (pH 7.01, Sodium phosphate 50mM) was 71.1 kcal/mol. The Tm (pH 7.05, Sodium phosphate 50mM) was 85.5 °C, the “heat capacity change of unfolding” value (pH 7.05, Sodium phosphate 50mM) was 0.36 kcal/mol/K and the “unfolding enthalpy (calorimetric)” value (pH 7.05, Sodium phosphate 50mM) was 65.5 kcal/mol. The Tm (pH 8, Sodium phosphate 50mM) was 86.5 °C, the “heat capacity change of unfolding” value (pH 8, Sodium phosphate 50mM) was 0.51 kcal/mol/K and the “unfolding enthalpy (calorimetric)” value (pH 8, Sodium phosphate 50mM) was 72.3 kcal/mol. For the same protein, the Tm (pH 9.2, bicine 50mM) was 86.3 °C, the “heat capacity change of unfolding” value (pH 9.2, bicine 50mM) was 0.7 kcal/mol/K and the “unfolding enthalpy (calorimetric)” value (pH 9.2, bicine 50mM) was 72.1 kcal/mol. For the same protein, the Tm (pH 10.05, glycine 50mM) was 86.5 °C, the “heat capacity change of unfolding” value (pH 10.05, glycine 50mM) was 0.53 kcal/mol/K and the “unfolding enthalpy (calorimetric)” value (pH 10.05, glycine 50mM) was 72.5 kcal/mol. For the same protein, the Tm (pH 10.5, glycine 50mM) was 87 °C, the “heat capacity change of unfolding” value (pH 10.5, glycine 50mM) was 0.05 kcal/mol/K and the “unfolding enthalpy (calorimetric)” value (pH 10.5, glycine 50mM) was 73.6 kcal/mol. The Tm (pH 10.55, glycine 50mM) was 86 °C, the “heat capacity change of unfolding” value (pH 10.55, glycine 50mM) was 0.8 kcal/mol/K and the “unfolding enthalpy (calorimetric)” value (pH 10.55, glycine 50mM) was 68.5 kcal/mol.
